# Paper PMC13043812
# B1: unnamed (parent)
# chain 1: MVTHELLVKAAGAVLTGLVGVSAYETLRKALGTAPIRRASVTVMEWGLRGTRRAEAAAESARLTVADVVAEARGRIGEEAPLPAGARVDE
# chain 2: MTTVVDAEVQLTVVSDAAGRMRVQATGFQFDAGRAVAIEDTVGKVAGVQAVHAYPRTASIVIWYSRAICDTAAILSAIIDAETVPA
# Variants of: B1
# Details: with partner chain of the complex shown; in M. smegmatis; parent: 100; read off a plot
row,Variant,response [% GFP+ cells]
1,chain 1 MVTHELLVKAAGAVLTGLVGVSAYETLRKALGTAPIRRASVTVMEWGLRGTRRAEAAAASARLTVADVVAAARGRIGEEAPLPAGARVDE,0.015
2,chain 1 MVTHELLVKAAGAVLTGLVGVSAYETLRKALGTAPIRRASVTVMEWGLRGTRRAEAAAESARLTVADVVAAARGRIGEEAPLPAGARVDE,8.5
3,chain 1 MVTHELLVKAAGAVLTGLVGVSAYETLRKALGTAPIRRASVTVMEWGLRGTRRAEAAAASARLTVADVVAEARGRIGEEAPLPAGARVDE,0.31
